In this assay the target is human AXL (full length) (human (Homo sapiens)) (UniProt P30530). Put plainly: flow cytometry, A431 cells pre-incubated with 10 µg/mL Gas6 (competitor: Gas6). (Flow cytometry measures light scatter and fluorescence of single cells or particles in a stream.)

B1: IgG1-YW327.6S2 (antibody, from another filing, V domains shown)
VH: EVQLVESGGGLVQPGGSLRLSCAASGFSLSGSWIHWVRQAPGKGLEWVGWINPYRGYAYYADSVKGRFTISADTSKNTAYLQMNSLRAEDTAVYYCAREYSGWGGSSVGYAMDYWGQGTLVTVSS
VL: DIQMTQSPSSLSASVGDRVTITCRASQDVSTAVAWYQQKPGKAPKLLIYSASFLYSGVPSRFSGSGSGTDFTLTISSLQPEDFATYYCQQSYTTPPTFGQGTKVEIK
In the case of B1, the fold higher EC50 after Gas6 pre-incubation than without Gas6 was determined as 21 fold and the maximal binding in the presence of Gas6 (% of binding without Gas6) turned out to be 19%.

The values above are taken from patent publication US20190022243A1.
